The source of these data is patent US20140056903A1 (Regeneron, published 2014).

Assay [1] addresses T1, monkey GFRα3 expressed with a C-terminal myc-myc-hexahistidine tag (monkey (Mf), UniProt O60609 32-374 (human entry), limits assumed).
T1 construct: also called MfGFRα3-mmh; MfGFRα3-mmH
T1 chain: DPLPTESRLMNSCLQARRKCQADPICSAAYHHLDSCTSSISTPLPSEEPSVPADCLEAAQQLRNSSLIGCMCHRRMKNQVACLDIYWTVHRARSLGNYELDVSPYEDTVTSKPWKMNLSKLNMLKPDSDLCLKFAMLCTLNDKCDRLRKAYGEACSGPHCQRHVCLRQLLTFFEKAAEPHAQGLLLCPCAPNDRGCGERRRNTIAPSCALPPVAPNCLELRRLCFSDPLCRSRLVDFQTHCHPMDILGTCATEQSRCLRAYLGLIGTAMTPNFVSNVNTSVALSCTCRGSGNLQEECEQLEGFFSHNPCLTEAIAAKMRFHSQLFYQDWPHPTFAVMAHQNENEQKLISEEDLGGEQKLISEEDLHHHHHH
The assay is described as follows: SPR, Ab captured, 25C. In short, it runs like this: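 Biacore kinetics use antibody captured via anti-IgG and a 1:1 fit of association (up to 4 min) and dissociation (up to 20 min) phases. Analyte ranges are 200–7.4 nM for myc-myc-His constructs and 100–3.7 nM for the hFc construct.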
A general note: In SPR one partner is held on a chip, and binding of the other changes the refractive index at the surface.

For assay [2], the target named is T1, monkey GFRα3 expressed with a …. The assay is described as follows: SPR, Ab captured, 37C. The procedure:
(§1) Antibodies were tested for binding to human GFRα3 expressed with either a C-terminal myc-myc-hexahistidine tag (hGFRα3-mmh; SEQ ID: 370, a C-terminal hFc tag (hGFRα3-hFc; SEQ ID:371), or a C-terminal mFc tag (hGFRα3-mFc; SEQ ID:372), as well as monkey GFRα3 expressed with a C-terminal myc-myc-hexahistidine tag (MfGFRα3-mmh; SEQ ID:373). Anti-GFRα3 antibodies were captured on either a goat anti-mouse IgG polyclonal antibody (GE Healthcare, #BR-1008-38) or a mouse anti-human IgG monoclonal antibody (GE Healthcare, #BR-1008-39) surface created through direct amine coupling to a Biacore CM5 sensor chip. Kinetic experiments were carried out using HBS-EP (10 mM HEPES, 150 mM NaCl, 3 mM EDTA, 0.05% Surfactant P20, at pH 7.4) or PBS buffer containing 0.05% v/v surfactant P20 as both the running buffer and the sample buffer. Binding to human GFRα3-mmh or monkey GFRα3-mmh was evaluated by injecting several concentrations ranging from 200 to 7.4 nM (3-fold dilutions) across the captured antibody surface. Binding to human GFRα3-mFc or human GFRα3-hFc was evaluated by injecting several concentrations ranging from 100 to 3.7 nM (3-fold dilutions) across the captured antibody surface. Antibody-antigen association was monitored for up to 4 minutes, while dissociation in buffer was monitored for up to 20 minutes. Kinetic association (kₐ) and dissociation (kd) rate constants were determined by processing and fitting the data to a 1:1 binding model using Scrubber 2.0c curve fitting software. Binding dissociation equilibrium constants (KD) and dissociative half-lives (t_{1/2}) were calculated from the kinetic rate constants as: KD (M)=kd/kₐ and t_{1/2} (min)=[ln 2/(60*kd)].

For assay [3], the target named is T2, human GFRα3 expressed with a C-terminal mFc tag (human).
T2 construct: also called hGFRα3-mFc
T2 chain: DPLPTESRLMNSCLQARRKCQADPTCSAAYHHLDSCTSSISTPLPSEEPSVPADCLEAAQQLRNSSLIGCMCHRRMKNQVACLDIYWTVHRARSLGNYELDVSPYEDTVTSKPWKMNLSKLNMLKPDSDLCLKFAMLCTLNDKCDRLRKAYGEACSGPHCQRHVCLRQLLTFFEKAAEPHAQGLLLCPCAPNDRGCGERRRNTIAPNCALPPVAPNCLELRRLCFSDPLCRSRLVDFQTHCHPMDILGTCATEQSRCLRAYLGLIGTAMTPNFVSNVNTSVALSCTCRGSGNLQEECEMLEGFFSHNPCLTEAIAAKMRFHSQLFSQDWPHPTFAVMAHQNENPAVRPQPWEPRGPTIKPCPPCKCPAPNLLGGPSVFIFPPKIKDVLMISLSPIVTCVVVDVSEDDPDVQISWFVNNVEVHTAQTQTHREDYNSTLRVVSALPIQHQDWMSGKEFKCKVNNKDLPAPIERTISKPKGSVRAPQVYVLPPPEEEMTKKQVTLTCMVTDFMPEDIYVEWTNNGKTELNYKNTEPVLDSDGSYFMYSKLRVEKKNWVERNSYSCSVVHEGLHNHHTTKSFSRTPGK
The assay is described as follows: SPR, Ab captured, 37C. The procedure: as §1

B1: H4H2345S (antibody, human IgG4, V domains shown)
VH: EVQLVESGGGLVRPGRSLRLSCAASGFTFDNYAMHWVRQVPGKGLEWVSGITWNSVSLGYADSVKGRFTISRDNAQNSLYLQMNSLRTVDTALYYCAKDRWGGSYYFDFWGQGTLVTVSS
VL: DIVMTQSPSSLSASVGDRVTITCRASQGISNYLAWYQQKPGKVPKLLIYSASTLQSGVPSRFSGSGSGTDFTLTISNLQPEDFATFFCQKYNSAPTFGGGTKVEIK
notes: human IgG4 Fc (H4H)
By Kd is commonly meant the equilibrium constant for the complex coming apart. What is called koff is a measure of how fast the partners let go of each other. As a reminder, the kon is the rate constant with which the complex forms. Turning to B1, in assay [1], binding was characterised by a dissociation constant (Kd) of 28.7 nM, the koff came out at 0.00279 s⁻¹, the on-rate constant (kon) stood at 97500 M⁻¹ s⁻¹ and the t1/2 was found to be 0.0667 h. In assay [2], this molecule registered a Kd of 26.3 nM, a koff of 0.00353 s⁻¹, a kon of 134000 M⁻¹ s⁻¹ and a t1/2 of 0.05 h. In assay [3], this molecule came in with a Kd of 0.106 nM, a koff of 7.44e-05 s⁻¹, an on-rate constant (kon) of 700000 M⁻¹ s⁻¹ and a t1/2 of 2.58 h.

B2: H4H2344S (antibody, human IgG4, V domains shown)
VH: EVQLVESGGGVVQPGRSLRLSCAASGFSFSDYVMHWVRQAPGKGLEWVASIWFDGSNEFYADSVKGRFTISRDNSKNTLFLQMNSLRAEDTAVYYCAKKGVLVATSAFDIWGQGTMVTVSS
VL: DIQMTQSPSSLSASVGDRVTITCRASQSINNYLNWYHQKPGKAPKLLIYAASSLQSGVPSRFSGSGSGTDYTLTISSLQPEDFGNYYCQQSYRTSMYTFGQGTKVEIK
notes: human IgG4 Fc (H4H)
In assay [1], B2 showed a Kd of 1.1 nM, a koff of 0.000115 s⁻¹, a kon of 104000 M⁻¹ s⁻¹ and a t1/2 of 1.68 h. In assay [2], the Kd came to 3.57 nM, the koff was found to be 0.000575 s⁻¹, the kon stood at 161000 M⁻¹ s⁻¹ and the t1/2 was 0.333 h. Besides, in assay [3], the affinity, expressed as Kd, was 0.0891 nM; the koff was 8.96e-05 s⁻¹; the kon was 1.01e+06 M⁻¹ s⁻¹; the t1/2 was 2.15 h.

B3: H4H2354S (antibody, human IgG4, V domains shown)
VH: QVQLVESGGGVVQPGRSLRLSCAASGFSFSDYVMHWVRQAPGKGLEWVASIWFDGSNEFYADSVKGRFTISRDNSKNTLFLQMNSLRAEDTAVYYCAKKGVLVATSAFDIWGQGTMVTVSS
VL: DIQLTQSPSSLSASVGDRVTITCRASQSINNYLNWYHQKPGKAPKLLIYAASSLQSGVPSRFSGSGSGTDYTLTISSLQPEDFGNYYCQQSYRTSMYTFGQGTKVEIK
notes: human IgG4 Fc (H4H); also called H4H2354S-1
In assay [1], B3 registered a Kd of 0.574 nM, a koff of 6.23e-05 s⁻¹, a kon of 109000 M⁻¹ s⁻¹ and a t1/2 of 3.08 h. In assay [2], the Kd is 2.78 nM, the koff stood at 0.000435 s⁻¹, the kon stood at 157000 M⁻¹ s⁻¹ and the t1/2 came out at 0.45 h. For the same molecule, in assay [3], binding was put at a Kd of 0.0895 nM, the koff was found to be 9.11e-05 s⁻¹, the kon was 1.02e+06 M⁻¹ s⁻¹ and the t1/2 was 2.12 h.

B4: H4H2293P (antibody, human IgG4, V domains shown)
VH: QVQLVESGGGVVQPGRSLRLSCAASGFSFSDYVMHWVRQAPGKGLEWVASIWFDGSNELYADSVKGRFTISRDNSKNTLFLQMNSLRAEDTAVYYCAKKGVLVATSAFHIWGQGTMVTVSS
VL: AIQMTQSPSSLSASVGDRVTITCRASQNINNYLNWYHQKPGKAPNLLIYAASSLQSGVPSRFSGSGSGTDYTLTISSLQPEDFGNYYCQQSYSTSMYTFGQGTKLEIK
notes: human IgG4 Fc (H4H)
Consider B4, for which, in assay [1], binding was put at a Kd of 0.144 nM, the koff was determined as 4.17e-05 s⁻¹, the kon came to 290000 M⁻¹ s⁻¹ and the t1/2 was found to be 4.62 h. Further, in assay [2], the Kd came to 0.358 nM, the koff stood at 0.000158 s⁻¹, the kon stood at 441000 M⁻¹ s⁻¹ and the t1/2 is 1.22 h. In addition, in assay [3], the Kd turned out to be 0.0299 nM, the koff came to 5.13e-05 s⁻¹, the kon turned out to be 1.71e+06 M⁻¹ s⁻¹ and the t1/2 worked out at 3.75 h.

B5: H4H2346S (antibody, human IgG4, V domains shown)
VH: QVQLVESGGGVVQPGRSLRLSCAASGFSFSDYVMHWVRQAPGKGLEWVASIWFDGSNEFYADSVKGRFTISRDNSKNTLFLQMNSLRAEDTAVYYCAKKGVLVATSAFDIWGQGTMVTVSS
VL: EIVMTQSPSSLSASVGDRVTITCRASQSINNYLNWYHQKPGKAPKLLIYAASSLQSGVPSRFSGSGSGTDYTLTISSLQPEDFGNYYCQQSYRTSMYTFGQGTKVEIK
notes: human IgG4 Fc (H4H)
In assay [1], B5 displayed a Kd of 0.556 nM, a koff of 5.98e-05 s⁻¹, a kon of 108000 M⁻¹ s⁻¹ and a t1/2 of 3.22 h. Further, in assay [2], binding was characterised by a dissociation constant (Kd) of 3.34 nM, the koff is 0.000511 s⁻¹, the kon turned out to be 153000 M⁻¹ s⁻¹ and the t1/2 was 0.383 h. In assay [3], this molecule showed a Kd of 0.0781 nM, a koff of 0.000137 s⁻¹, a kon of 1.75e+06 M⁻¹ s⁻¹ and a t1/2 of 1.4 h.

B6: H4H2341S (antibody, human IgG4, V domains shown)
VH: EVQLVESGAEVKKSGSSVKVSCKASGGTFSRYAISWVRQAPGQGLEWMGGIIPLFGTLNYAQKFQGRVTLTTDESTSTAYMELSSLRSEDTAVYYCAVFYYGSGSYRNWFDPWGQGTLVTVSS
VL: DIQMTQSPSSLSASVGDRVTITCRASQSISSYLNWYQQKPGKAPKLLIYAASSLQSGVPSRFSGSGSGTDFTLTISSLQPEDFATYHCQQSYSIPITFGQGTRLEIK
notes: human IgG4 Fc (H4H)
Take B6: in assay [1], binding was put at a Kd of 1.39 nM, the koff was 0.00013 s⁻¹, the kon came out at 93800 M⁻¹ s⁻¹ and the t1/2 was 1.48 h. In assay [2], this molecule had a Kd of 3.53 nM, a koff of 0.000508 s⁻¹, an association rate constant (kon) of 144000 M⁻¹ s⁻¹ and a t1/2 of 0.383 h. For the same molecule, in assay [3], the Kd was 0.0789 nM, the koff was 7.58e-05 s⁻¹, the kon stood at 961000 M⁻¹ s⁻¹ and the t1/2 amounted to 2.53 h.

B7: H4H2364S (antibody, human IgG4, V domains shown)
VH: EVQLVESGGGLEQPGGSLRLSCAASGFTFSSYVMSWVRQVPGKGLEWVSVISGSGGSTYYADSVKGRFTISRDNSKNTLYLQMNSLRAEDTAVYYCAKPSSYSSSNFHYGMDVWGQGTTVTVSS
VL: DIQMTQSPYSVSASVGDRVTITCRASQGISSWLAWYQQKPGRAPKLLIYAASSLQSGVPSRFSGSGSGTDFTLTISSLQPEDFATYYCQKTNSFPFTFGPGTKVEIK
notes: human IgG4 Fc (H4H)
In assay [1], B7 showed a Kd of 1.06 nM, a koff of 0.00013 s⁻¹, a kon of 122000 M⁻¹ s⁻¹ and a t1/2 of 1.48 h. In assay [2], this molecule returned a dissociation constant (Kd) of 5.14 nM, a koff of 0.000861 s⁻¹, a kon of 168000 M⁻¹ s⁻¹ and a t1/2 of 0.217 h. In addition, in assay [3], binding was put at a Kd of 0.0328 nM, the koff amounted to 4.14e-05 s⁻¹, the kon came out at 1.26e+06 M⁻¹ s⁻¹ and the t1/2 is 4.65 h.
